Reference: IntAct's records for PubMed 20010843

B1: Cadherin-5 (Homo sapiens), P33151 (parent)
chain: MQRLMMLLATSGACLGLLAVAAVAAAGANPAQRDTHSLLPTHRRQKRDWIWNQMHIDEEKNTSLPHHVGKIKSSVSRKNAKYLLKGEYVGKVFRVDAETGDVFAIERLDRENISEYHLTAVIVDKDTGENLETPSSFTIKVHDVNDNWPVFTHRLFNASVPESSAVGTSVISVTAVDADDPTVGDHASVMYQILKGKEYFAIDNSGRIITITKSLDREKQARYEIVVEARDAQGLRGDSGTATVLVTLQDINDNFPFFTQTKYTFVVPEDTRVGTSVGSLFVEDPDEPQNRMTKYSILRGDYQDAFTIETNPAHNEGIIKPMKPLDYEYIQQYSFIVEATDPTIDLRYMSPPAGNRAQVIINITDVDEPPIFQQPFYHFQLKENQKKPLIGTVLAMDPDAARHSIGYSIRRTSDKGQFFRVTKKGDIYNEKELDREVYPWYNLTVEAKELDSTGTPTGKESIVQVHIEVLDENDNAPEFAKPYQPKVCENAVHGQLVLQISAIDKDITPRNVKFKFILNTENNFTLTDNHDNTANITVKYGQFDREHTKVHFLPVVISDNGMPSRTGTSTLTVAVCKCNEQGEFTFCEDMAAQVGVSIQAVVAILLCILTITVITLLIFLRRRLRKQARAHGKSVPEIHEQLVTYDEEGGGEMDTTSYDVSVLNSVRRGGAKPPRPALDARPSLYAQVQKPPRHAPGAHGGPGEMAAMIEVKKDEADHDGDGPPYDTLHIYGYEGSESIAESLSSLGTDSSDSDVDYDFLNDWGPRFKMLAELYGSDPREELLY
partner: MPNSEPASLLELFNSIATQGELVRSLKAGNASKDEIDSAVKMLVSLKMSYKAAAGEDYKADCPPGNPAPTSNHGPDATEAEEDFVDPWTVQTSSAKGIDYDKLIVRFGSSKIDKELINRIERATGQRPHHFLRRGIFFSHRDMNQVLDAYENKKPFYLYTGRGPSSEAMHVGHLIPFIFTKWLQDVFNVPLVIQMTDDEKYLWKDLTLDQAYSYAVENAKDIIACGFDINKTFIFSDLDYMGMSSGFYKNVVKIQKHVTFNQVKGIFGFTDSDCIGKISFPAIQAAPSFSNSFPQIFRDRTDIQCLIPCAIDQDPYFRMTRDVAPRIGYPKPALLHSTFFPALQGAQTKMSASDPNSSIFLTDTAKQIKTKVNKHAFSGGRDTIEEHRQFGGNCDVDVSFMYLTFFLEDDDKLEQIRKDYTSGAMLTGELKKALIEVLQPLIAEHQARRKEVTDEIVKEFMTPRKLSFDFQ
B2: Tryptophan--tRNA ligase, cytoplasmic (Homo sapiens), P23381 (parent)
chain: B1 partner
partner: B1 chain

Variants of: B1
Settings: with sywc_human WARS1, P23381

effect of a mutation on the interaction | Variant
disrupting interaction | W49A
disrupting interaction | W49A;W51A
disrupting interaction | W51A

Variants of: B2
Settings: with cadh5_human CDH5, P33151

effect of a mutation on the interaction | Variant
disrupting interaction | MPNSEPASLLELFNSIATQGELVRSLKAGNASKDEIDSAVKMLVSLKMSYKAAAGEDYKADCPPGNPAPTSNHGPDATEAEEDFVDPWTVQTSSAKGIDYDKLIVRFGSSKIDKELINRIERATGQRPHHFLRRGIFFSHRDMNQVLDAYENKKPFYLYTGRGPSSEAMHVMHLIPFIFTKWLQDVFNVPLVIQMTDDEKYLWKDLTLDQAYSYAVENAKDIIACGFDINKTFIFSDLDYMGMSSGFYKNVVKIQKHVTFNQVKGIFGFTDSDCIGKISFPAIQAAPSFSNSFPQIFRDRTDIQCLIPCAIDQDPYFRMTRDVAPRIGYPKPALLHSTFFPALQGAQTKMSASDPNSSIFLTDTAKQIKTKVNKHAFSGGRDTIEEHRQFGGNCDVDVSFMYLTFFLEDDDKLEQIRKDYTSGAMLTGELKKALIEVLQPLIAEHQARRKEVTDEIVKEFMTPRKLSFDFQ [G172M]
disrupting interaction | MPNSEPASLLELFNSIATQGELVRSLKAGNASKDEIDSAVKMLVSLKMSYKAAAGEDYKADCPPGNPAPTSNHGPDATEAEEDFVDPWTVQTSSAKGIDYDKLIVRFGSSKIDKELINRIERATGQRPHHFLRRGIFFSHRDMNQVLDAYENKKPFYLYTGRGPSSEAMHVGHLIPFIFTKWLQDVFNVPLVIQMTDDEKYLWKDLTLDQAYSYAVENAKDIIACGFDINKTFIFSDLDYMGMSSGFYKNVVKIQKHVTFNQVKGIFGFTDSDCIGKISFPAIQAAPSFSNSFPQIFRDRTDIQCLIPCWIDQDPYFRMTRDVAPRIGYPKPALLHSTFFPALQGAQTKMSASDPNSSIFLTDTAKQIKTKVNKHAFSGGRDTIEEHRQFGGNCDVDVSFMYLTFFLEDDDKLEQIRKDYTSGAMLTGELKKALIEVLQPLIAEHQARRKEVTDEIVKEFMTPRKLSFDFQ [A310W]
disrupting interaction | MPNSEPASLLELFNSIATQGELVRSLKAGNASKDEIDSAVKMLVSLKMSYKAAAGEDYKADCPPGNPAPTSNHGPDATEAEEDFVDPWTVQTSSAKGIDYDKLIVRFGSSKIDKELINRIERATGQRPHHFLRRGIFFSHRDMNQVLDAYENKKPFYLATGRGPSSEAMHVGHLIPFIFTKWLQDVFNVPLVIAMTDDEKYLWKDLTLDQAYSYAVENAKDIIACGFDINKTFIFSDLDYMGMSSGFYKNVVKIQKHVTFNQVKGIFGFTDSDCIGKISFPAIQAAPSFSNSFPQIFRDRTDIQCLIPCAIDQDPYFRMTRDVAPRIGYPKPALLHSTFFPALQGAQTKMSASDPNSSIFLTDTAKQIKTKVNKHAFSGGRDTIEEHRQFGGNCDVDVSFMYLTFFLEDDDKLEQIRKDYTSGAMLTGELKKALIEVLQPLIAEHQARRKEVTDEIVKEFMTPRKLSFDFQ [Y159A;Q194A]
disrupting interaction | MPNSEPASLLELFNSIATQGELVRSLKAGNASKDEIDSAVKMLVSLKMSYKAAAGEDYKADCPPGNPAPTSNHGPDATEAEEDFVDPWTVQTSSAKGIDYDKLIVRFGSSKIDKELINRIERATGQRPHHFLRRGIFFSHRDMNQVLDAYENKKPFYLYTWRGPSSEAMHVGHLIPFIFTKWLQDVFNVPLVIQMTDDEKYLWKDLTLDQAYSYAVENAKDIIACGFDINKTFIFSDLDYMGMSSGFYKNVVKIQKHVTFNQVKGIFGFTDSDCIGKISFPAIQAAPSFSNSFPQIFRDRTDIQCLIPCAIDQDPYFRMTRDVAPRIGYPKPALLHSTFFPALQGAQTKMSASDPNSSIFLTDTAKQIKTKVNKHAFSGGRDTIEEHRQFGGNCDVDVSFMYLTFFLEDDDKLEQIRKDYTSGAMLTGELKKALIEVLQPLIAEHQARRKEVTDEIVKEFMTPRKLSFDFQ [G161W]
